Measured values published in article PMC3686747.

Columns and labels:
[1] = target: heat shock protein 60 (Hsp60), bovine brain (bovine (endogenous in bovine brain)) (UniProt P31081); test: co-IP; Mono S active fraction from bovine brain, anti-Hsp60 antibody; N-SMase activity recovered in the immunoprecipitates after resuspension in IP buffer (data not shown)
[2] = target: heat shock protein 60 (Hsp60), bovine brain (bovine (endogenous in bovine brain)) (UniProt P31081); test: co-IP; active N-SMase fraction (Mono S or Superose 12) from bovine brain, holding both proteins together; anti-Hsp60 or anti-N-SMase2 antibody on Protein A Sepharose, 4 h at 4°C; N-SMase activity of supernatants and immunoprecipitates, immunoblot; with indicated concentrations of Triton X-100 in one panel

UniProt P31081, sequence (P31081 27-573): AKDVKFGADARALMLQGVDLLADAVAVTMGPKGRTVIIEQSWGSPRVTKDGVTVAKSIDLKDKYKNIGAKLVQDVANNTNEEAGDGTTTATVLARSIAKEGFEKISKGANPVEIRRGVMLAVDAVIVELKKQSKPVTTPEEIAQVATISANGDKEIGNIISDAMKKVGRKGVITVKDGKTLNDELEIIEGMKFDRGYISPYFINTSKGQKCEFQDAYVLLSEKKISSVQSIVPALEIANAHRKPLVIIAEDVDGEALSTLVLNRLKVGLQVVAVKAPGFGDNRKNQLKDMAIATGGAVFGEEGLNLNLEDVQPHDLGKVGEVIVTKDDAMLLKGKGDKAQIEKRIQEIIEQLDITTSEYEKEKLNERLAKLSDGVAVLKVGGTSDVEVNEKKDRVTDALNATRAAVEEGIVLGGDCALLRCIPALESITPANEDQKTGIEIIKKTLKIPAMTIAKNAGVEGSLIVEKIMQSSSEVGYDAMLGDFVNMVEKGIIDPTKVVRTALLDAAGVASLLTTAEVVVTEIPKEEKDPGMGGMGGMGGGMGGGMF

percent of total N-SMase activity recovered in the anti-Hsp60 immunoprecipitates [1]: 10%
percent of N-SMase activity precipitated by anti-Hsp60 antibody [2]: 20%
Substance: neutral sphingomyelinase 2 (N-SMase2), bovine brain, purified as N-SMase ε (enzyme)
